The record followed here is patent US20220340636A1.

The assay concerns the target human IR-B overexpressed on NIH 3T3 mouse fibroblast cells (human) (UniProt P06213). Briefly: cell-based or functional assay.

sCon-Ins G1 (ligand) gave a fold greater efficiency of Akt phosphorylation than the PTM-free analogue of 8 fold and a log [EC50 (nM)], Akt phosphorylation (pAkt Ser473) of 0.9 log nM.
Substance Con-Ins G1 (ligand) had a fold less active than hIns, Akt phosphorylation assay of 10 fold and a log [EC50 (nM)], Akt phosphorylation (pAkt Ser473) of 0.78 log nM.
